In assay [1] the target is dengue 2 virus recombinant envelope glycoprotein (rEgp) expressed by baculovirus (dengue 2 virus (strain PR 159)) (UniProt P12823). As to the kind of experiment: antigen dot blot, extract of infected High-5 cells, mAb 1:100, 125I goat anti-mouse immunoglobulin.
The target in assay [2] is protein expressed by the recombinant baculovirus clone containing DEN-2 prME genes (ACNPV-prME) (dengue 2 virus). The assay is described as above.
Assay [3] addresses native envelope glycoprotein (Egp) on purified DEN-2 virus (dengue 2 virus) (UniProt P14340). As to the kind of experiment: antigen dot blot, purified DEN-2 virus, mAb 1:100, 125I goat anti-mouse immunoglobulin.
Assay [4] has as its target protein extracted from High-5 cells infected with wild-type baculovirus. As to the kind of experiment: antigen dot blot, negative control extract of wild-type baculovirus infected High-5 cells, mAb 1:100.
For assay [5], the target named is dengue 2 virus recombinant envelope glycoprotein (rEgp) expressed by baculovirus (dengue 2 virus (strain PR 159)) (UniProt P12823). As to the kind of experiment: particle fluorescence assay (PFCIA), FITC-labeled mAb on antigen-coated polystyrene beads, pH 5.0, partially-purified recombinant E protein.
Assay [6] has as its target native envelope glycoprotein (Egp) on purified DEN-2 virus (dengue 2 virus) (UniProt P14340). As to the kind of experiment: particle fluorescence assay (PFCIA), FITC-labeled mAb on antigen-coated polystyrene beads, pH 5.0, purified DEN-2 virus.
For assay [7], the target named is dengue 2 virus recombinant envelope glycoprotein (rEgp) expressed by baculovirus (dengue 2 virus (strain PR 159)) (UniProt P12823). As to the kind of experiment: particle fluorescence assay (PFCIA), FITC-labeled mAb on antigen-coated polystyrene beads, pH 5.0, lysate of cells infected with the E-protein recombinant baculovirus.

Take monoclonal antibody 3H5: the Reactivity with antigen (cpm) is 13600 cpm in assay [1], 10100 cpm in assay [2], 7500 cpm in assay [3] and 1400 cpm in assay [4].
As to monoclonal antibody 4G2, the Reactivity with antigen (cpm) was determined as 8500 cpm in assay [1], 5000 cpm in assay [2], 16800 cpm in assay [3] and 1000 cpm in assay [4]. In addition, the Binding affinity worked out at 2.3e-06 in assay [5], 1.3e-06 in assay [6] and 2.9e-06 in assay [7].
